Molecular target: VLDL (apolipoprotein B-100 containing) (Homo sapiens) (UniProt P04114)
Experiment: EMSA
Conditions: LDL has greater affinity

Chain of UniProt P04114 (P04114 28-4563): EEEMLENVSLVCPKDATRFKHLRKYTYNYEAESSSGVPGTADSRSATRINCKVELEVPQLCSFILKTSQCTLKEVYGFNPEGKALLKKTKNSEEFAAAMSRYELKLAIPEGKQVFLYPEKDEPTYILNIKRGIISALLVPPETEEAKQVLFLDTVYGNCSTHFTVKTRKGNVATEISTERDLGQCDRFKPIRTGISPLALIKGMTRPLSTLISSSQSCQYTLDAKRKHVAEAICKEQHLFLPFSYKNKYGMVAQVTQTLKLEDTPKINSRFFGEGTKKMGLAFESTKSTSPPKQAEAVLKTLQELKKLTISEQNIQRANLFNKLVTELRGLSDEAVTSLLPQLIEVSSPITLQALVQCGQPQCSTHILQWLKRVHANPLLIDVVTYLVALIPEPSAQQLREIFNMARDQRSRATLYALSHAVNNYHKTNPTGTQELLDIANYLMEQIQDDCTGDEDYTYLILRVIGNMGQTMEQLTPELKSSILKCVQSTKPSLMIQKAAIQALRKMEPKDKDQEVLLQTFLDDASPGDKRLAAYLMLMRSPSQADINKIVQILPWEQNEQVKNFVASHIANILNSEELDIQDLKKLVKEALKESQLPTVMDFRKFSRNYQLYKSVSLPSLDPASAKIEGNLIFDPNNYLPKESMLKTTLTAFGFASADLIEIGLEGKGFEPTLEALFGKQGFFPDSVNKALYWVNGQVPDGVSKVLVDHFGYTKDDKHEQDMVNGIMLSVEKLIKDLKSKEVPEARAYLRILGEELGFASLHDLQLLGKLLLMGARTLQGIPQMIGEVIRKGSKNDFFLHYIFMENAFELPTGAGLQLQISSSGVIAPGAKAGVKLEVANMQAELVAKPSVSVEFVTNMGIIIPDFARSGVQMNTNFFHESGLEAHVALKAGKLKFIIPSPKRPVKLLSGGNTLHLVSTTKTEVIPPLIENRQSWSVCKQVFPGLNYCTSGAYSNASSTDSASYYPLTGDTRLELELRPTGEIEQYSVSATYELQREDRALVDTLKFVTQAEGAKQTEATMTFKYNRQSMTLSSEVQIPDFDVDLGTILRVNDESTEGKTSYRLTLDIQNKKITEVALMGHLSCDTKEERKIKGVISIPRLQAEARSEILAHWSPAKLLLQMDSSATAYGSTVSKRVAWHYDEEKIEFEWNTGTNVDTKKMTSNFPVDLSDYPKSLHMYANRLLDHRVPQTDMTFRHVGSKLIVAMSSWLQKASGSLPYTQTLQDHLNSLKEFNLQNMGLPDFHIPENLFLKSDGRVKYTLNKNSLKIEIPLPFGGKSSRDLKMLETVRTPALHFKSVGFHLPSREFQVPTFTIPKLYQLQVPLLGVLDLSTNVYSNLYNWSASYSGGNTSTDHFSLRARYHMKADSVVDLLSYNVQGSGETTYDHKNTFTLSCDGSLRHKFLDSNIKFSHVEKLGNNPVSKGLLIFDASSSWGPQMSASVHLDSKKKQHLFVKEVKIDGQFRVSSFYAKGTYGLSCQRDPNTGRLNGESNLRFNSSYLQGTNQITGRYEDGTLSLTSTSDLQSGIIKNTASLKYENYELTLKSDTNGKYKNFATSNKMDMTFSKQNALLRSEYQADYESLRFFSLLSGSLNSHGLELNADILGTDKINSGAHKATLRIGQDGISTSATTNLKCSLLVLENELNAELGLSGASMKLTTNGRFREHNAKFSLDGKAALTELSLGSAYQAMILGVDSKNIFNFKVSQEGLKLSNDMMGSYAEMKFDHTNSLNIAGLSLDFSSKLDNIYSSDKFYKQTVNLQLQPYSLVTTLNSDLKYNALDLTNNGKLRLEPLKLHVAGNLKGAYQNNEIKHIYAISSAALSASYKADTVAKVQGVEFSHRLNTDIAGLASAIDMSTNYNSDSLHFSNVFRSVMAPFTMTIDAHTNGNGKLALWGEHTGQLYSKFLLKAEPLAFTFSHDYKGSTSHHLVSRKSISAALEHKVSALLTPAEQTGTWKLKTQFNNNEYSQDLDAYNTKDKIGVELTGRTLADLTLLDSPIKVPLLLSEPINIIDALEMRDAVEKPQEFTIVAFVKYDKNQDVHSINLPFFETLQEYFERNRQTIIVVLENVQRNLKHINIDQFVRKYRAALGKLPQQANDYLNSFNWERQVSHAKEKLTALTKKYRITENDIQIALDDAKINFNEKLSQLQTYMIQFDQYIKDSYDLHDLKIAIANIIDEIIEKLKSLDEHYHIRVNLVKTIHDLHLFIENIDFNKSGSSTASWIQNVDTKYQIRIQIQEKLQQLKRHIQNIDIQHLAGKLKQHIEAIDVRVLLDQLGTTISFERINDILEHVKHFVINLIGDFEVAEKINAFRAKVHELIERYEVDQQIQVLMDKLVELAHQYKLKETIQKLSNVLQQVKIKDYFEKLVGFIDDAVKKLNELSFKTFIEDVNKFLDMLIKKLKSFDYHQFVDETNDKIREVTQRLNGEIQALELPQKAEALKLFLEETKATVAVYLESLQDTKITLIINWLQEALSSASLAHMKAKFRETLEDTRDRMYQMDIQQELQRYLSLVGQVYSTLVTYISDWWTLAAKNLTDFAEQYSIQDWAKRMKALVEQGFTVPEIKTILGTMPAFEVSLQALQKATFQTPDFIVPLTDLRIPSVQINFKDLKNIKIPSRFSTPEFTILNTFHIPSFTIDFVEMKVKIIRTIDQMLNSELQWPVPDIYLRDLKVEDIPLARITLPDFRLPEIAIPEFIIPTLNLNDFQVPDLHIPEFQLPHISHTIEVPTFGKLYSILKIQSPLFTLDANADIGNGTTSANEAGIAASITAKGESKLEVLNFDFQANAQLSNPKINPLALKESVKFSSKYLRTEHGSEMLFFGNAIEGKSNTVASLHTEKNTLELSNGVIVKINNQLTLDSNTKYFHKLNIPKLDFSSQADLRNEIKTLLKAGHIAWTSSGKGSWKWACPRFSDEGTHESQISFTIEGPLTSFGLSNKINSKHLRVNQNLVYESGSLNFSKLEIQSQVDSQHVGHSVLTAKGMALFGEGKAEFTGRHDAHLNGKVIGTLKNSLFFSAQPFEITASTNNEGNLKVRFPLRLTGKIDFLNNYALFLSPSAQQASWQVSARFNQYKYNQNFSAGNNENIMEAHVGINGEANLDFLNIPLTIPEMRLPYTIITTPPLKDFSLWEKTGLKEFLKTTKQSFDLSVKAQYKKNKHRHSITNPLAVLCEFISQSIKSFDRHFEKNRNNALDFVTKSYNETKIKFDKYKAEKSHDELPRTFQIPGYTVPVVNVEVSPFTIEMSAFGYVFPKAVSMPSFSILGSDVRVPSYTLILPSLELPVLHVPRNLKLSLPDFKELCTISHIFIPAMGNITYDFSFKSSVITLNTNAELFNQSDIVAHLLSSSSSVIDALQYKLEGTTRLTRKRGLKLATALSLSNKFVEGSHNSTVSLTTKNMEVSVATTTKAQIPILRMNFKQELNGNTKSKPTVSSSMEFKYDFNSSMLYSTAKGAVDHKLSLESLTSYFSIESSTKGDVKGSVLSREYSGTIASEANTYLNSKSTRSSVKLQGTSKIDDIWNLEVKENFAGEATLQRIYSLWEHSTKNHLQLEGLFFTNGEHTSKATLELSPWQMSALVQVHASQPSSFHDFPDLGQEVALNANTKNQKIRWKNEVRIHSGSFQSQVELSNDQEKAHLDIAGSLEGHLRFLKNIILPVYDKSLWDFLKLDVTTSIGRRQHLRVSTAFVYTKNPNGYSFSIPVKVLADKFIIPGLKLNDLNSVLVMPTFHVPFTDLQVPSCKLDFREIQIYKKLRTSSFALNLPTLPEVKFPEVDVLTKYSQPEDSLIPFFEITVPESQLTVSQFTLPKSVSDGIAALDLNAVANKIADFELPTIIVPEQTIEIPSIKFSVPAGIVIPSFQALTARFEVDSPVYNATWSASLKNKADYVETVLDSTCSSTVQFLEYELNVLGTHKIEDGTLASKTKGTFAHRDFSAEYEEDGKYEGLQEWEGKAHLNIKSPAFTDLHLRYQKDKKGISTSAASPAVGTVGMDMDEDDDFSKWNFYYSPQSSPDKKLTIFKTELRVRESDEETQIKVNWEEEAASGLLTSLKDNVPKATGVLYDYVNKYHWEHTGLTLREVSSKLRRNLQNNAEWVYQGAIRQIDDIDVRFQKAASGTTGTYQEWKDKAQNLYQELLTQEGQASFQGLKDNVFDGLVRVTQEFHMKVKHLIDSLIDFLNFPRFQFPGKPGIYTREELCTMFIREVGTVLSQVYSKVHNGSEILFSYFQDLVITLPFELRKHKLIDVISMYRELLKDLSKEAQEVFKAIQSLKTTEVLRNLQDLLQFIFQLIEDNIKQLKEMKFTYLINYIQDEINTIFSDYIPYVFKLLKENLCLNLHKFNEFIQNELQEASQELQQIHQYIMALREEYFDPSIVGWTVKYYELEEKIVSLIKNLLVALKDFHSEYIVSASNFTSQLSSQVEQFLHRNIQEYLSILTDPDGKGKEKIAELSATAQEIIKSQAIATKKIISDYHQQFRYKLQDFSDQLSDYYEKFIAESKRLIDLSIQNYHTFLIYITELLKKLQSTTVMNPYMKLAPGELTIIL

## E/C oligonucleotide (E-box CANNTG and CCAAT)
  binding signal (% of total labeled DNA): < 1

## SRE oligonucleotide
  binding signal (% of total labeled DNA): < 1
